In patent publication US20250250357A1 (NANJING ZAIMING PHARMACEUTICAL, published 2025):

T1: monkey MSLN full-length protein (NCBI: XP_028696439.1) expressed on HEK293T-monkey MSLN cells (monkey)
T1 construct: Whole encoded precursor
T1 chain: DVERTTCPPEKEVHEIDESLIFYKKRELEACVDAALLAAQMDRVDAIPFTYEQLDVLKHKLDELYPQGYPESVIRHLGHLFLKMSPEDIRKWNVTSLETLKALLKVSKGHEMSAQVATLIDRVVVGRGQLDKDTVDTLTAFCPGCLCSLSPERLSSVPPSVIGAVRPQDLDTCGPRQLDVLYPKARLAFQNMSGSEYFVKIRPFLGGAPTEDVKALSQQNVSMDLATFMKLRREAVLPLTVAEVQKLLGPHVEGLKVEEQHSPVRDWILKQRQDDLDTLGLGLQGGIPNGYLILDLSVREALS


Key:
[1] = target: T2, human MSLN-R3 protein (Met487-Ser606 of NCBI AAH09272.1) expressed on HEK293T-hMSLN-R3 cells (human, UniProt Q13421 487-606); experiment: FACS on HEK293T-hMSLN-R3 cells;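 further: flow cytometry binding of test chimeric antibodies to cells after 2 h incubation on ice, with values derived from the mean fluorescence intensity of the cells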
T2 construct: also called Region3
T2 sequence (Q13421 495-614): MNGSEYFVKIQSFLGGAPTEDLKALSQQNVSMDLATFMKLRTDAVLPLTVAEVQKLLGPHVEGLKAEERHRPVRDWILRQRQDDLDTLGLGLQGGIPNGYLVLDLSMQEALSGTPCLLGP
Procedure: (§1) The desired cells were expanded to the logarithmic growth phase in a T-75 cell culture flask. […] After the cells from the previous step were subjected to cell counting, the cell pellet was resuspended to 2×10⁶ cells/mL in a blocking buffer of [PBS+2% (w/w) BSA] and added into a 96-well FACS reaction plate at 50 μL/well. A chimeric antibody (a sample to be tested) was added at 50 μL/well, and the plate was incubated on ice for 2 h. […] After the plate was centrifuged and washed 5 times with a PBST buffer, assay and analysis were performed by FACS (FACS CantoII, purchased from BD). Data analysis was performed by software (Flowjo) to obtain the mean fluorescence intensity (MFI) of the cells.

[2] = target: T1, monkey MSLN full-length protein (NCBI: …); experiment: FACS on HEK293T-monkey MSLN cells;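 further: flow cytometry binding of chimeric antibodies to the cells, with a 2 h incubation on ice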
Procedure: as §1

[3] = target: T3, human MSLN protein endogenously expressed on OVCAR3 tumor cells (human, UniProt Q13421 296-598); experiment: FACS on OVCAR3 cells;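 further: flow cytometry binding of test antibodies to cells, 2 h incubation on ice, readout as cell mean fluorescence intensity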
T3 construct: whole, on cells; Endogenous target on OVCAR3 cells; kept apart from the recombinant full-length construct; also called mesothelin
T3 sequence (Q13421 other isoform, or with tags, fused parts or gaps): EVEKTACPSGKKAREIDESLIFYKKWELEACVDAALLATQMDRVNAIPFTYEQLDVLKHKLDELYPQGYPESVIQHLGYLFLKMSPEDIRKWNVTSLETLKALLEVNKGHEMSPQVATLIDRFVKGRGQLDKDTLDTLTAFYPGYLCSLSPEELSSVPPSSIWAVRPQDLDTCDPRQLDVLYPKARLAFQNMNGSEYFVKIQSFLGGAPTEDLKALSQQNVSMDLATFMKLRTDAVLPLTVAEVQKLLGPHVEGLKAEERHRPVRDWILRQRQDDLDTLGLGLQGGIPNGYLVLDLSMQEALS
Procedure: as §1

[4] = target: T4, human MSLN-R3 protein expressed on HEK293T cells (HEK293T-hMSLN-R3) (human, UniProt Q13421 487-606); experiment: FACS on HEK293T-hMSLN-R3 cells;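 further: chimeric antibodies incubated with cells on ice for 2 h, binding read by flow cytometry as mean fluorescence intensity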
T4 construct: C-terminal limit uncertain
T4 sequence (Q13421 495-614): as the sequence (Q13421 495-614) above

[5] = target: T5, human MSLN-R2-his protein (human, UniProt Q13421 391-486); experiment: ELISA, coated MSLN-R2;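 further: chimeric antibodies bound to blocked coated plates for 2 h at 37 °C, TMB colour development stopped with HCl, with a negative control antibody for comparison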
T5 construct: Region 2 of human MSLN, His-tagged; also called human MSLN-R2 protein; hMSLN-R2-his; not shown: His tag
T5 sequence (Q13421 other isoform, or with tags, fused parts or gaps): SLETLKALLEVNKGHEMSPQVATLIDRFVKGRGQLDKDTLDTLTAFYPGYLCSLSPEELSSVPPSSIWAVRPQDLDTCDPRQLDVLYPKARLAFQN

[6] = target: T6, human MSLN-R3-3 polypeptide (human); experiment: ELISA, coated MSLN-R3-3;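 further: chimeric antibodies in serial dilution bound to plate-coated antigen for 2 h at 37 °C, with a negative control antibody alongside, and TMB colour development stopped with HCl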
T6 construct: also called human MSLN-R3-3 protein; hMSLN-R3-3
Procedure: The plate was sealed with a plastic film and incubated at 4° C. overnight. The next day, the plate was washed twice with PBST, and a blocking buffer [PBS+2% (w/w) BSA] was added for blocking at room temperature for 2 h. The blocking buffer was discarded, and a chimeric antibody or negative control antibody serially diluted from 100 nM was added at 50 μL/well. After incubation at 37° C. for 2 h, the plate was washed 3 times with PBST. […] After incubation at 37° C. for 2 h, the plate was washed 5 times with PBST. A TMB substrate was added at 50 μL/well for incubation at room temperature for 5-10 min, and then a stop solution (1.0 N HCl) was added at 50 μL/well.

[7] = target: T7, human MSLN-R3-his protein (human, UniProt Q13421 487-598); experiment: ELISA, coated MSLN-R3
T7 construct: Region 3 of human MSLN, His-tagged; also called human MSLN-R3 protein; hMSLN-R3-his; not shown: His tag
T7 sequence (Q13421 495-606): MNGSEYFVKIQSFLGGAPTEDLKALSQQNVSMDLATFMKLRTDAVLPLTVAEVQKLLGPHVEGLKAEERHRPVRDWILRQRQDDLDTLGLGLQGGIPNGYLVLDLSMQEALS

OD450 at 0.0001 nM [5] [OD450]	OD450 at 0.001 nM [5] [OD450]	OD450 at 0.01 nM [5] [OD450]	OD450 at 0.1 nM [5] [OD450]	OD450 at 1 nM [5] [OD450]	OD450 at 10 nM [5] [OD450]	OD450 at 100 nM [5] [OD450]	OD450 at none (no antibody) [5] [OD450]	OD450 at 0.0001 nM [6] [OD450]	OD450 at 0.001 nM [6] [OD450]	OD450 at 0.01 nM [6] [OD450]	OD450 at 0.1 nM [6] [OD450]	OD450 at 1 nM [6] [OD450]	OD450 at 10 nM [6] [OD450]	OD450 at 100 nM [6] [OD450]	OD450 at none (no antibody) [6] [OD450]	OD450 at 0.0001 nM [7] [OD450]	OD450 at 0.001 nM [7] [OD450]	OD450 at 0.01 nM [7] [OD450]	OD450 at 0.1 nM [7] [OD450]	Binder	further results
																				S009-F7.6.17 (antibody, human IgG1, kappa, V domains shown, human-murine chimeric antibody, human IgG1/kappa constant regions) VH: QVQLQQSGAELARPGASVKMSCKASGYTFTTYTMHWVKQRPGQGLEWIGYISPTGDFTKYNQKFKDKATLTTDKSSNTAFMQLSSLTSEDSAVYYCARWNGTVWFAYWGQGTLVTVSA VL: DIVMTQSQKFMSTSVGDRVTVTCKASQALGTNVAWYQQKPGQSPKVLIYSASYRYSGVPYRFAGGGSGTDFTLTITNVQSEDLAEYFCQQYNNYPLTFGAGTKLELKR	EC50 [1]: 310 pM; Maximum mean fluorescence intensity [1]: 6420; EC50 [2]: 700 pM; Maximum mean fluorescence intensity [2]: 56100; EC50 [3]: 990 pM; Maximum mean fluorescence intensity [3]: 31800
																				Tab106 (YP218, hIgG1) (antibody, V domains shown, control antibody; YP218 VH and VL in human IgG1 CH and CL vectors; also called YP218 human IgG1 antibody) VH: QQQLEESGGGLVKPEGSLTLTCKASGFDLGFYFYACWVRQAPGKGLEWIACIYTAGSGSTYYASWAKGRFTISKASSTTVTLQMTSLAAADTATYFCARSTANTRSTYYLNLWGPGTLVTVSS VL: DVVMTQTPASVSEPVGGTVTIKCQASQRISSYLSWYQQKPGQRPKLLIFGASTLASGVPSRFKGSGSGTEYTLTISDLECADAATYYCQSYAYFDSNNWHAFGGGTEVVVRT	EC50 [4]: 1000 pM; Maximum mean fluorescence intensity [4]: 24500
0.04	0.05	0.05	0.04	0.05	0.05	0.06	0.05	0.07	0.07	0.07	0.08	0.07	0.07	0.15	0.07	0.05	0.05	0.05	0.05	S009-F1.35.24 (antibody, human IgG1, kappa, V domains shown, Human-murine chimeric antibody, human IgG1/kappa constant regions) VH: EVQLQQSEPELVKPGASVRISCKASGYSFTDYYMHWVKQSPENRLEWIGEINPSTGGTSYNPKFKDKATLTVDKSSSTAYMQLKSLTSEESAVYYCTRYHYYGSSSYVMDYWGQGTSVTVSS VL: QIVLTQSPAILSASPGERVTMTCSASSSVYHMHWFQQKSGTSPKRWVYDTSKLASGVPARFSGSGSGTSYSLTISSMEAEDAATYYCQHWRTNPLTFGAGTKLELKR	OD450 at 1 nM [7]: 0.05 OD450; OD450 at 10 nM [7]: 0.05 OD450; OD450 at 100 nM [7]: 0.06 OD450; OD450 at none (no antibody) [7]: 0.05 OD450
0.03	0.05	0.04	0.06	0.04	0.05	0.06	0.04	0.06	0.07	0.07	0.07	0.06	0.07	0.13	0.07	0.04	0.06	0.07	0.26	S009-F1.62.9 (antibody, human IgG1, kappa, V domains shown, Human-murine chimeric antibody, human IgG1/kappa constant regions) VH: EVQLQQSGADLVKPGASVKLSCTVFGLNFKDTFMHWVRQRPEQGLEWIGRIDPANDNSIYGPKFQDKATITADTSSNTAYLHLSSLTSEDTAVYYCLYFDNWGHGTTLTVSS VL: DIVMTQAASSEPVTPGESVSISCRSDKSLLHSNGHNYLYWFLQRPGQSPHLLIYRMSNLASGVPDRFSGSGSGTAFTLRISRVEAEDVGVYYCMQHLEYPLTFGAGTKLELKR	OD450 at 1 nM [7]: 1.06 OD450; OD450 at 10 nM [7]: 2 OD450; OD450 at 100 nM [7]: 2.32 OD450; OD450 at none (no antibody) [7]: 0.05 OD450
0.04	0.04	0.05	0.04	0.05	0.05	0.11	0.05	0.07	0.07	0.07	0.07	0.07	0.13	0.72	0.07	0.05	0.05	0.04	0.05	S009-F1.7.14 (antibody, human IgG1, kappa, Human-murine chimeric antibody, human IgG1/kappa constant regions) heavy: not shown light: QIVLTQSPAIMSASPGEKVTISCSASSSVSYMYWYQQKPGSSPKPWISRTSNLASGVPARFSGSGSGTSYSLTISSMEAEDAATYYCQQYHSYPPTLGAGTKLELKRTVAAPSVFIFPPSDEQLKSGTASVVCLLNNFYPREAKVQWKVDNALQSGNSQESVTEQDSKDSTYSLSSTLTLSKADYEKHKVYACEVTHQGLSSPVTKSFNRGEC	OD450 at 1 nM [7]: 0.05 OD450; OD450 at 10 nM [7]: 0.07 OD450; OD450 at 100 nM [7]: 0.1 OD450; OD450 at none (no antibody) [7]: 0.05 OD450
0.03	0.04	0.06	0.05	0.04	0.05	0.06	0.04	0.06	0.06	0.06	0.06	0.07	0.07	0.18	0.07	0.05	0.06	0.17	1	S009-F1.59.1 (antibody, human IgG1, kappa, V domains shown, Human-murine chimeric antibody, human IgG1/kappa constant regions) VH: EVKLEGSGGGLVQPGGSMMLSCVATGFTFSSYWMNWVRQSPDRGLEWVAEIRLKSNGFAAFYAESVKGRFTISRDDSKSSVYLQMNNLRTEDTGIYYCTYFVHWGQGILVTVSE VL: DIVLTQSPTSLAVSLGQRATISCRTSESVEYFGTILIQWYQQKPGQPPKLLIFGASNVESGVPARFSGSGSGTDFSLNIHPVEEEDIAMYFCQQNRKVPYTFGGGTTLELKR	OD450 at 1 nM [7]: 1.62 OD450; OD450 at 10 nM [7]: 2.05 OD450; OD450 at 100 nM [7]: 2.51 OD450; OD450 at none (no antibody) [7]: 0.05 OD450
0.05	0.05	0.05	0.06	0.1	0.3	1.44	0.05	0.06	0.08	0.06	0.07	0.07	0.08	0.16	0.08	0.05	0.06	0.05	0.05	S009-F1.2.12 (antibody, human IgG1, kappa, V domains shown) VH: QVQLKQTGPGLVQPSQSLSITCTVSGFSLTNYAVHWVRQSPGKGLEWLGVIWSGGATDYNTVFISRLSISKDNSKSQVFFKVNSLQVDDTAIYYCARTGSGYAMDYWGQGTSVTVSS VL: DIVLTQSPATLSVTPGDRVSLSCRTSHNVNTYLHWYQQKSHESPRLLIKYASQSISEIPSRFSGSGSGTNFTLSINSVETEDFGMYFCHQTNRWPLTFGAGTKLELKR	OD450 at 1 nM [7]: 0.05 OD450; OD450 at 10 nM [7]: 0.06 OD450; OD450 at 100 nM [7]: 0.06 OD450; OD450 at none (no antibody) [7]: 0.06 OD450
0.04	0.04	0.04	0.04	0.04	0.05	0.05	0.05	0.07	0.13	0.59	1.82	2.17	2.41	2.78	0.07	0.05	0.05	0.09	0.34	S009-F1.25.10 (antibody, human IgG1, kappa, V domains shown, Human-murine chimeric antibody, human IgG1/kappa constant regions) VH: EVQLQQSGPELVKPGASLKISCKASGYSFTDYTMNWVKQSHGKNLEWIGLFNPYNGGISYNQKFKGKATLTVDKSSNTAYMELLSLTSDDSAVYFCARDGRGGFYAMDYWGQGTSVTVSS VL: DIQMTQTTSSLSASLGDRVTISCRASQDISIYLNWYQQKPDGPVKLLIYYTSRLHSGVPSRFSGSGSGTDFSLTISNLEQEDIATYFCQQGYTLPPWTFGGGTKLEIKR	OD450 at 1 nM [7]: 1.44 OD450; OD450 at 10 nM [7]: 2.07 OD450; OD450 at 100 nM [7]: 2.81 OD450; OD450 at none (no antibody) [7]: 0.05 OD450
																				S009-F7.2.3 (antibody, human IgG1, kappa, V domains shown, human-murine chimeric antibody, human IgG1/kappa constant regions) VH: ELQLVESGGDLVKPGGSLKLSCAASGFTFSSNGMSWLRQTPDKRLEWVATISSGGRYTYYPDSVKGRFTISRDNAKNTLYLQMSSLKSEDTAMYYCARRGIYDYFDCWGQGTTLTVSS VL: DIQMTQSPASLSISVGETVTITCRASENIHSSLAWYQQKQGKSPQLLVYAATNLADGVPSRFSGSGSGSQYSLKINSLQSEDFGTYYCQHFWGTPWTFGGGTKLDIKR	Maximum mean fluorescence intensity [1]: 33; binding result [1]: no binding; EC50 [3]: 1740 pM; Maximum mean fluorescence intensity [3]: 22800
